According to PMC10261145, “Ceramide sensing by human SPT-ORMDL complex for establishing sphingolipid homeostasis” (Nature Communications, 2023):
Changes are numbered by the printed parent chain. Names and notes keep the numbering of the source. Each block holds one binder with its values, some of them ahead of it.

What was measured:
[1] = substrate: N[C@@H](CO)C(=O)O; experiment: purified protein; conditions: 100 μM palmitoyl-CoA, 25 μM PLP, pH 7.5, 37 °C
[2] = substrate: CCCCCCCCCCCCCCCC(=O)SCCNC(=O)CCNC(=O)[C@H](O)C(C)(C)COP(=O)(O)OP(=O)(O)OC[C@H]1O[C@@H](n2cnc3c(N)ncnc32)[C@H](O)[C@@H]1OP(=O)(O)O; experiment: DTNB CoA-release assay; allosteric sigmoidal fit; type: biochemical, Homo sapiens; conditions: 10 mM L-serine, 25 μM PLP, pH 7.5, 37 °C
Excerpt: DTNB CoA-release assay; allosteric sigmoidal fit on SPT-ORMDL3 complex | increased Khalf for palmitoyl-CoA in the ORMDL3-containing complex (Fig. 1e)

[3] = substrate: CCCCCCCCCCCCCCCC(=O)SCCNC(=O)CCNC(=O)[C@H](O)C(C)(C)COP(=O)(O)OP(=O)(O)OC[C@H]1O[C@@H](n2cnc3c(N)ncnc32)[C@H](O)[C@@H]1OP(=O)(O)O; experiment: DTNB CoA-release assay; allosteric sigmoidal fit; type: biochemical, Homo sapiens; conditions: 10 mM L-serine, 25 μM PLP, pH 7.5, 37 °C; remark: listed apart in the source
Excerpt: DTNB CoA-release assay; allosteric sigmoidal fit on SPT complex | SPT activity versus palmitoyl-CoA concentration for SPT and SPT-ORMDL3 complex

[4] = substrate: CCCCCCCCCCCCCCCC(=O)SCCNC(=O)CCNC(=O)[C@H](O)C(C)(C)COP(=O)(O)OP(=O)(O)OC[C@H]1O[C@@H](n2cnc3c(N)ncnc32)[C@H](O)[C@@H]1OP(=O)(O)O; experiment: DTNB CoA-release assay; allosteric sigmoidal fit; type: biochemical, Homo sapiens; conditions: 10 mM L-serine, 25 μM PLP, pH 7.5, 37 °C; remark: listed apart in the source
[5] = biological target: the molecule itself; experiment: cryo-EM structure; single-particle cryo-EM of co-expressed and co-purified SPT-ORMDL3 complexes at ~18 mg/ml in 25 mM HEPES pH 7.5, 150 mM NaCl, 0.01% GDN; apo, or WT preincubated with 1 mM C6-ceramide on ice for 1 hr
[6] = substrate: CCCCCCCCCCCCCCCC(=O)SCCNC(=O)CCNC(=O)[C@H](O)C(C)(C)COP(=O)(O)OP(=O)(O)OC[C@H]1O[C@@H](n2cnc3c(N)ncnc32)[C@H](O)[C@@H]1OP(=O)(O)O; experiment: DTNB CoA-release assay; allosteric sigmoidal fit; type: biochemical, Homo sapiens; conditions: 10 mM L-serine, 25 μM PLP, pH 7.5, 37 °C; remark: listed apart in the source
Excerpt: DTNB CoA-release assay; allosteric sigmoidal fit on SPT-ORMDL3 complex | Khalf value of this variant toward palmitoyl-CoA was nearly two times as high

[7] = biological target: T1, serine palmitoyltransferase (SPT) complex (SPTLC1, SPTLC2, SPTssa) (human, UniProt O15269 1-473; O15270 1-562; Q969W0 1-71); experiment: cryo-EM structure; single-particle cryo-EM of co-expressed and co-purified SPT-ORMDL3 complexes at ~18 mg/ml in 25 mM HEPES pH 7.5, 150 mM NaCl, 0.01% GDN; apo, or WT preincubated with 1 mM C6-ceramide on ice for 1 hr; conditions: both partners purified
T1 construct: SPTLC1, human, codon-optimized full-length cDNA; SPTLC2, human, codon-optimized full-length cDNA; SPTssa, human, codon-optimized full-length cDNA; Also purified alone, without ORMDLs; also called WT SPT complex; source: HEK293F, transiently co-transfected, purified (anti-Flag resin, SEC, GDN); copies: + +
T1 sequence (looked up) 1: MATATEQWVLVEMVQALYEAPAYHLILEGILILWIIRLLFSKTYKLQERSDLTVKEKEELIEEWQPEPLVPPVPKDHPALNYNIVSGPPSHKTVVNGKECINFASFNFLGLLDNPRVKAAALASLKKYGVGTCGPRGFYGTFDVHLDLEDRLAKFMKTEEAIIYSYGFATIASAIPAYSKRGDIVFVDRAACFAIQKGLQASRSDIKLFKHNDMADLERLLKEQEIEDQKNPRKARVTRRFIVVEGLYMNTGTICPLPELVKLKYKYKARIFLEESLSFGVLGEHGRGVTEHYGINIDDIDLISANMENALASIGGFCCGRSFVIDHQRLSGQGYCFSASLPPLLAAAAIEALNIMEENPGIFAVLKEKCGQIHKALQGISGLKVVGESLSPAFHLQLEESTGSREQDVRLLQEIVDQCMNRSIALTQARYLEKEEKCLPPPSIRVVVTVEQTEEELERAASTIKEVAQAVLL
T1 sequence (looked up) 2: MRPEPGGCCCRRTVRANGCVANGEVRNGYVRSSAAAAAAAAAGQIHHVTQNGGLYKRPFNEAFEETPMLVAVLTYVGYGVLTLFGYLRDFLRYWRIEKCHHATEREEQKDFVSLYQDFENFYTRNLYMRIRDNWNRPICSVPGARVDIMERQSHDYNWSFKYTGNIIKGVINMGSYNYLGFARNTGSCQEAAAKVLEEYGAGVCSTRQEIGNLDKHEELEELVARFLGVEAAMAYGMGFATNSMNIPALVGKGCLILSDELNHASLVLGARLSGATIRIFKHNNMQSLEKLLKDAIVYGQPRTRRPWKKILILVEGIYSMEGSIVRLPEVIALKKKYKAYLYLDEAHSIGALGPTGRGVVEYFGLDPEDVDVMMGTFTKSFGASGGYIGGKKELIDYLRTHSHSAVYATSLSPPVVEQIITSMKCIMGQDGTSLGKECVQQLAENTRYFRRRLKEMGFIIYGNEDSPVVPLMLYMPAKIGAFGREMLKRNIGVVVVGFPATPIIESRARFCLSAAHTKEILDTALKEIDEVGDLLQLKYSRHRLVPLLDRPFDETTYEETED
T1 sequence (looked up) 3: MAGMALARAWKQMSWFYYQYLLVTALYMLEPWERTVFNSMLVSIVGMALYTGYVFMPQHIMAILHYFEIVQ

[8] = biological target: T2, SPTLC1 (human, UniProt O15269 1-473); experiment: as above; conditions: both partners purified
T2 construct: serine palmitoyltransferase subunit SPTLC1, human, codon-optimized full-length cDNA; source: HEK293F, transiently co-transfected with the other subunits, purified as a complex (anti-Flag resin, SEC, GDN)
T2 sequence (looked up): T1 sequence (looked up) 1

[9] = biological target: T3, SPTLC2 (human, UniProt O15270 1-562); experiment: as above; conditions: both partners purified
T3 construct: serine palmitoyltransferase subunit SPTLC2, human, codon-optimized full-length cDNA; source: HEK293F, transiently co-transfected with the other subunits, purified as a complex (anti-Flag resin, SEC, GDN)
T3 sequence (looked up): T1 sequence (looked up) 2

B1: SPT-ORMDL3 complex (Homo sapiens) (protein)
chain 1: MNVGTAHSEVNPNTRVMNSRGIWLSYVLAIGLLHIVLLSIPFVSVPVVWTLTNLIHNMGMYIFLHTVKGTPFETPDQGKARLLTHWEQMDYGVQFTASRKFLTITPIVLYFLTSFYTKYDQIHFVLNTVSLMSVLIPKLPQLHGVRIFGINKY
chain 2: T1 sequence (looked up) 2
chain 3: T1 sequence (looked up) 1
notes: full-length subunits (ORMDL3-FL) co-expressed in HEK293F; N-terminal Flag tag on a subunit; purified in GDN; dimer of heterotetrameric protomers; with Serine palmitoyltransferase small subunit A
Km [1]: 1140 ± 70 µM
K0.5 [2]: 26.85 ± 2.18 µM

B2: SPT complex (Homo sapiens) (protein)
chain 1: T1 sequence (looked up) 1
chain 2: T1 sequence (looked up) 2
notes: core enzyme without ORMDL; full-length subunits co-expressed in HEK293F; N-terminal Flag tag on a subunit; purified in GDN; with Serine palmitoyltransferase small subunit A
Km [1]: 1580 ± 130 µM
K0.5 [3]: 4.47 ± 0.31 µM

B3: SPT-ORMDL3 (ORMDL3-ΔN17) (Homo sapiens) (protein)
chain 1: T1 sequence (looked up) 1
chain 2: T1 sequence (looked up) 2
notes: ORMDL3 lacking the N-terminal 16 residues (deletion 2-17, by analogy with the printed ΔN8 = 2-8); HEK293F; purified in GDN; with Serine palmitoyltransferase small subunit A; ORM1-like protein 3
K0.5 [4]: 2.51 ± 0.33 µM

B4: SPT-ORMDL3 (ORMDL3-N13A) complex (complex, human)
chain 1: T1 sequence (looked up) 1
chain 2: T1 sequence (looked up) 2
chain 3: T1 sequence (looked up) 3
chain 4: B1 chain 1 with N13A
notes: SPTLC1, human, codon-optimized full-length cDNA; SPTLC2, human, codon-optimized full-length cDNA; SPTssa, human, codon-optimized full-length cDNA; ORMDL3, human, full-length cDNA with N13A; One protomer; also called ORMDL3-N13A variant; ORMDL3-N13A protomer; source: HEK293F, transiently co-transfected, purified (anti-Flag resin, SEC, GDN); copies: + + +
binding result [5]: binds

B5: SPT-ORMDL3 complex (SPTLC1, SPTLC2, SPTssa, ORMDL3-FL) (complex, human)
chain 1: T1 sequence (looked up) 1
chain 2: T1 sequence (looked up) 2
chain 3: T1 sequence (looked up) 3
chain 4: B1 chain 1
notes: SPTLC1, human, codon-optimized full-length cDNA; SPTLC2, human, codon-optimized full-length cDNA; SPTssa, human, codon-optimized full-length cDNA; ORMDL3, human, codon-optimized full-length cDNA; One protomer; two protomers form the dimeric complex seen by cryo-EM; also called WT SPT-ORMDL3 complex; SPT-ORMDL3 protomer; source: HEK293F, transiently co-transfected, purified (anti-Flag resin, SEC, …)
stoichiometry N [5]: 2

B6: SPT-ORMDL3 (ORMDL3-ΔN2) complex (complex, human)
chain 1: T1 sequence (looked up) 1
chain 2: T1 sequence (looked up) 2
chain 3: T1 sequence (looked up) 3
chain 4: MVGTAHSEVNPNTRVMNSRGIWLSYVLAIGLLHIVLLSIPFVSVPVVWTLTNLIHNMGMYIFLHTVKGTPFETPDQGKARLLTHWEQMDYGVQFTASRKFLTITPIVLYFLTSFYTKYDQIHFVLNTVSLMSVLIPKLPQLHGVRIFGINKY
notes: SPTLC1, human, codon-optimized full-length cDNA; SPTLC2, human, codon-optimized full-length cDNA; SPTssa, human, codon-optimized full-length cDNA; ORMDL3, human, full-length cDNA with Asn2 deleted; One protomer; also called ORMDL3-ΔN2 variant; ORMDL3-ΔN2 protomer; source: HEK293F, transiently co-transfected, purified (anti-Flag resin, SEC, GDN); copies: + + +
binding result [5]: binds

B7: SPT-ORMDL3 complex (Homo sapiens; Q8N138:N13A) (protein)
chain 1: B1 chain 1 with N13A
chain 2: T1 sequence (looked up) 2
chain 3: T1 sequence (looked up) 1
notes: as for B1
K0.5 [6]: 8.05 ± 1.20 µM

binding result [7]: binds
binding result [8]: binds
binding result [9]: binds
B8: ORMDL3 (full-length, wild type) (natural protein, human, UniProt Q8N138 1-153, looked up)
chain: B1 chain 1
notes: ORMDL3, human, codon-optimized full-length cDNA in pCAG (new ORMDL3-FL plasmid without the 14 extra nucleotides upstream of the ORF); cDNAs were cloned 'with an N-terminal Flag tag or without a tag'; also called ORMDL3-FL; WT ORMDL3; source: HEK293F, transiently co-transfected with the SPT subunits, purified as a complex (anti-Flag resin, SEC, GDN)

binding result [7]: binds
B9: ORMDL3-N13A (natural protein, human, UniProt Q8N138 1-153, looked up)
chain: B1 chain 1 with N13A
notes: ORMDL3, human, full-length cDNA with N13A; also called ORMDL3-N13A mutant; source: HEK293F, transiently co-transfected with the SPT subunits, purified as a complex (anti-Flag resin, SEC, GDN)

binding result [7]: binds
B10: ORMDL3-ΔN2 (deletion of the Asn2 residue) (natural protein, human, UniProt Q8N138 1-153, looked up)
chain: B6 chain 4
notes: ORMDL3, human, full-length cDNA with Asn2 deleted; also called ORMDL3-ΔN2 mutant; source: HEK293F, transiently co-transfected with the SPT subunits, purified as a complex (anti-Flag resin, SEC, GDN)
